The target of one experiment is T1, HA-tagged PA of FluB (Influenza B virus).
T1 chain: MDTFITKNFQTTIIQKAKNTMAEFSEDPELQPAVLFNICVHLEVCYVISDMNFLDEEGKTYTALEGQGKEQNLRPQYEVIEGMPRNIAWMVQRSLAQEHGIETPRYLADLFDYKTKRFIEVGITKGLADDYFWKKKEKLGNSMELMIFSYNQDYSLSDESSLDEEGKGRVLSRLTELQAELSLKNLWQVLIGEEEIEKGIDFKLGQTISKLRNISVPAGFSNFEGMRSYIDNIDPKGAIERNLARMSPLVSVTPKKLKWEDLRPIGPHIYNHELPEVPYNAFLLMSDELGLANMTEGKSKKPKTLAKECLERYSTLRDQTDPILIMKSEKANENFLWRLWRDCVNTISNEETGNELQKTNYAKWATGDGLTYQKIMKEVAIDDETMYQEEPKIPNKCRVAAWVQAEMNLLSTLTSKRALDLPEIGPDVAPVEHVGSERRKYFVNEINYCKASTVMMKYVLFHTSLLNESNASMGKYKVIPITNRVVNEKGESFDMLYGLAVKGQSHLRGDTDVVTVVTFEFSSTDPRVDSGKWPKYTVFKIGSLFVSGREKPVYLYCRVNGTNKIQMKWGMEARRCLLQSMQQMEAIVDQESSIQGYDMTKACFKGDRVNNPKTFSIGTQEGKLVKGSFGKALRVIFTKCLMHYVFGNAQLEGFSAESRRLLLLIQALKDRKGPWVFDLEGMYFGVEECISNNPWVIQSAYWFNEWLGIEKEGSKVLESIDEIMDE
The experiment can be described thus: ELISA.

Another experiment concerns the target HA-tagged PA of FluA (Influenza A virus). In words: ELISA. For orientation: ELISA stands for enzyme-linked immunosorbent assay.

Where no end group is shown, it is not given here.

B1: PB1_(1–15)A competitor peptide (peptide)
peptide: MDVNPTLLFLKVPAQ-NH2
For B1, the IC50 with HA-tagged PA of FluB is more than 3000 nM.

B2: PB1_(1–15)B competitor peptide (peptide)
chain: MNINPYFLFIDVPIQ-NH2
On to B2, for which the IC50 in the experiment with HA-tagged PA of FluB is 45 nM; with HA-tagged PA of FluA, more than 3000 nM.

Broadly, the IC50 is the point on the concentration scale where inhibition reaches its midpoint. The low end stands for greater potency, the high end for weaker potency.
